We go through 20 sequences from the Immune Epitope Database (IEDB).

pIC50: −log10 of the molar value. Where only a bound is given, the exact number is not on record here.

A word on the pIC50: it is the IC50 on a negative log10 scale, so that one unit is a factor of ten.

One assay deals with HLA-A*68:02. The assay is described as follows: IEDB peptide-MHC binding, cellular MHC/competitive/fluorescence; ≥ and ≤ were set here for values at or beyond the usual limits of such assays.
In the next assay the target is HLA-A*02:02. The experiment in a line: IEDB peptide-MHC binding, purified MHC/competitive/radioactivity; ≥ and ≤ were set here for values at or beyond the usual limits of such assays.
A further assay has as its target HLA-A*02:06. The assay is described as above.
For a further assay, the target named is HLA-A*02:01. Described as above.
A further assay addresses HLA-A*02:03. The assay is described as above.
[1] abbreviates: source organism: Vaccinia virus WR.
The mark [2] stands for this setting: source organism: Hepacivirus hominis.

On to SLGKSPLPSL, for which the negative logarithm of the IC50 (pIC50) in the assay with HLA-A*68:02 (setting [1]) was 4.89; in the assay with HLA-A*02:02 (setting [1]), 8.39; in the assay with HLA-A*02:06 (setting [1]), 5.84; in the assay with HLA-A*02:01 (setting [1]), 6.87; with HLA-A*02:03 (setting [1]), 7.33.

In the case of SLIYYQNEVT, the pIC50 in the assay with HLA-A*68:02 (setting [1]) was 5.14; with HLA-A*02:02 (setting [1]), 7.11; with HLA-A*02:06 (setting [1]), 5.37; with HLA-A*02:01 (setting [1]), 6.28; in the assay with HLA-A*02:03 (setting [1]), 6.22.

For the sequence SLTQVKELGI, the pIC50 was 5.15 with HLA-A*68:02 (setting [1]); 8.01 in the assay with HLA-A*02:02 (setting [1]); 6.80 with HLA-A*02:06 (setting [1]); 6.68 with HLA-A*02:01 (setting [1]); 7.12 with HLA-A*02:03 (setting [1]).

In the case of SLVKESMASL, the pIC50 was 5.10 with HLA-A*68:02 (setting [1]); 6.00 with HLA-A*02:02 (setting [1]); 5.84 with HLA-A*02:06 (setting [1]); 5.63 in the assay with HLA-A*02:01 (setting [1]); 8.11 with HLA-A*02:03 (setting [1]).

Regarding SLVSKHWELT, the negative logarithm of the IC50 (pIC50) with HLA-A*68:02 (setting [1]) is 4.79; in the assay with HLA-A*02:02 (setting [1]), 6.39; with HLA-A*02:06 (setting [1]), 5.57; with HLA-A*02:01 (setting [1]) it was 7.02; with HLA-A*02:03 (setting [1]) it was 7.46.

On to SLVTSFLLM, for which the pIC50 with HLA-A*68:02 (source organism: SARS-CoV1) is 4.30; with HLA-A*02:02 (source organism: SARS-CoV1), 7.18; in the assay with HLA-A*02:06 (source organism: SARS-CoV1), 6.59; in the assay with HLA-A*02:01 (source organism: SARS-CoV1), 6.57; in the assay with HLA-A*02:03 (source organism: SARS-CoV1), 7.31.

As to SLVYGIRCV, the negative-log IC50 (pIC50) with HLA-A*68:02 (setting [1]) is 4.29; with HLA-A*02:02 (setting [1]), 5.53; with HLA-A*02:06 (setting [1]), 6.77; in the assay with HLA-A*02:01 (setting [1]) it was 6.52; with HLA-A*02:03 (setting [1]) it was 8.42.

For the sequence SMMVILPDKI, the pIC50 was 5.14 with HLA-A*68:02 (setting [1]); 7.55 in the assay with HLA-A*02:02 (setting [1]); 8.24 with HLA-A*02:06 (setting [1]); 8.21 with HLA-A*02:01 (setting [1]); 7.72 with HLA-A*02:03 (setting [1]).

With SMSQELAEL, the negative logarithm of the IC50 (pIC50) was 4.37 with HLA-A*68:02 (setting [1]); 8.40 in the assay with HLA-A*02:02 (setting [1]); 6.73 with HLA-A*02:06 (setting [1]); 7.08 with HLA-A*02:01 (setting [1]); 8.11 in the assay with HLA-A*02:03 (setting [1]).

SMYVIPDEL: the pIC50 with HLA-A*68:02 (setting [1]) is 5.15; in the assay with HLA-A*02:02 (setting [1]), 8.30; with HLA-A*02:06 (setting [1]) it was 5.55; with HLA-A*02:01 (setting [1]) it was 7.04; in the assay with HLA-A*02:03 (setting [1]), 7.89.

Take SQMETDFLEL: the negative logarithm of the IC50 (pIC50) was 4.70 with HLA-A*68:02 (source organism: SARS-CoV1); 6.64 in the assay with HLA-A*02:02 (source organism: SARS-CoV1); 7.68 with HLA-A*02:06 (source organism: SARS-CoV1); 7.04 in the assay with HLA-A*02:01 (source organism: SARS-CoV1); 6.22 in the assay with HLA-A*02:03 (source organism: SARS-CoV1).

TILATLNTL: the pIC50 in the assay with HLA-A*68:02 (setting [1]) was 4.73; in the assay with HLA-A*02:02 (setting [1]), 6.62; in the assay with HLA-A*02:06 (setting [1]), 7.59; with HLA-A*02:01 (setting [1]) it was 6.76; with HLA-A*02:03 (setting [1]), 7.47.

Turning to TLFGRGVIDT, the pIC50 was 5.24 with HLA-A*68:02 (setting [1]); 6.70 with HLA-A*02:02 (setting [1]); 5.48 with HLA-A*02:06 (setting [1]); 6.89 with HLA-A*02:01 (setting [1]); 7.02 in the assay with HLA-A*02:03 (setting [1]).

As to TLLGCWSFVL, the pIC50 with HLA-A*68:02 (setting [2]) was 4.58; with HLA-A*02:02 (setting [2]), 7.10; with HLA-A*02:06 (setting [2]), 6.60; with HLA-A*02:01 (setting [2]) it was 7.77; with HLA-A*02:03 (setting [2]) it was 6.06.

On to TLLLWISVKV, for which the pIC50 was 4.80 with HLA-A*68:02 (source organism: SARS-CoV1); 6.26 with HLA-A*02:02 (source organism: SARS-CoV1); 6.06 with HLA-A*02:06 (source organism: SARS-CoV1); 6.60 with HLA-A*02:01 (source organism: SARS-CoV1); 5.97 with HLA-A*02:03 (source organism: SARS-CoV1).

Regarding TLVPVLEKKV, the negative-log IC50 (pIC50) with HLA-A*68:02 (setting [1]) was 4.49; with HLA-A*02:02 (setting [1]), 6.95; in the assay with HLA-A*02:06 (setting [1]) it was 6.30; with HLA-A*02:01 (setting [1]) it was 6.02; with HLA-A*02:03 (setting [1]) it was 7.00.

As for VIPDELIDV, the pIC50 with HLA-A*68:02 (setting [1]) is 4.28; in the assay with HLA-A*02:02 (setting [1]), 6.22; in the assay with HLA-A*02:06 (setting [1]), 6.25; with HLA-A*02:01 (setting [1]), 6.64; with HLA-A*02:03 (setting [1]) it was 7.36.

For the sequence VLAGYGAGI, the pIC50 is 4.83 in the assay with HLA-A*68:02 (setting [2]); 7.96 with HLA-A*02:02 (setting [2]); 5.60 with HLA-A*02:06 (setting [2]); 6.39 with HLA-A*02:01 (setting [2]); 7.74 with HLA-A*02:03 (setting [2]).

Turning to VLALYSPPLI, the pIC50 was 4.84 with HLA-A*68:02 (setting [1]); 7.80 with HLA-A*02:02 (setting [1]); 6.06 with HLA-A*02:06 (setting [1]); 7.26 with HLA-A*02:01 (setting [1]); 7.00 with HLA-A*02:03 (setting [1]).

VLEKKVCAIT: the pIC50 with HLA-A*68:02 (setting [1]) was at most 4.15; with HLA-A*02:02 (setting [1]), 6.23; with HLA-A*02:06 (setting [1]), 5.77; with HLA-A*02:01 (setting [1]) it was 5.45; with HLA-A*02:03 (setting [1]), 5.91.
